Assay results published in US20060258586A1, “Compositions and uses of secreted polypeptide, Zsig98” (priority 2005, published 2006).

How the values were obtained:
[1] = system: cisplatin- or syrup of ipecac-induced emesis; settings: 3 mg/kg i.p.; cited from earlier work
[2] = biological target: the molecule itself; assay: SDS PAGE of refolded synthetic peptide; self-association
[3] = system: strips of ileum; assay: guinea pig ileum organ bath contractility; settings: isolated ileum strips
Procedure: In another model, male Hartley Guinea pigs at six weeks of age weighing approximately 0.5 kg are euthanized by carbon monoxide. Intestinal tissue is harvested as follows: 2-3 cm longitudinal sections of ileum 10 cm rostral of the cecum, and 2-3 cm longitudinal sections of duodenum, jejunum, and proximal and distal colon.
Tissue is washed in Krebs Ringer's Bicarbonate buffer containing 118.2 mM NaCl, 4.6 mM KCl, 1.2 mm MgS04, 24.8 mM NaHC03, 1.2 mM KH2P04, 2.5 mM CaCl2 and 10 mM glucose. […] Isometric contractions are measured with a force displacement transducer and recorded on a chart recorder using Po-ne-mah Physiology Platform Software. […]
Varying doses of Zsig98 from 1-400 ng/ml are tested for activity on strips of ileum. Muscle contractions are detected immediately after adding Zsig98 protein and are recorded at concentrations as low as 1 ng/ml or 100 picomolar. The EC 50 of this response is measured. […]
In another model, male Hartley Guinea pigs at six weeks of age weighing approximately 0.5 kg are euthanized by carbon monoxide. […] Isometric contractions are measured with a force displacement transducer and recorded on a chart recorder using Po-ne-mah Physiology Platform Software. […] Muscle contractions are detected immediately after adding Zsig98 protein and are recorded at concentrations as low as 1 ng/ml or 100 picomolar. The EC 50 of this response is measured. […]

## COc1ccccc1CN[C@H]1CCCN[C@H]1c1ccccc1 (relative stereo) [(.+−.) cis-3-(2-methoxybenzylamino)-2-phenyl piperidine]
[1]
  anti-emetic activity: exhibited anti-emetic activity

B1: Mature Zsig98, synthetic, made by native ligation and refolded (PEP05014 and PEP05015) (peptide)
chain: EPAGSAVPAQSRPCVDCHAFEFMQRALQDLRKTACSLDARTETLLLQAERRALCACWPAGH
notes: also called zsig98 peptide; synthetic zsig98
[2]
  binding result: binds

B2: Zsig98: secreted polypeptide; mature form amino acids 35 to 95 of SEQ ID NO:2 (SEQ ID NO:18) (protein, listed as Homo sapiens)
chain: EPAGSAVPAQSRPCVDCHAFEFMQRALQDLRKTACSLDARTETLLLQAERRALCACWPAGH
modifications: not fully specified
[3]
  activity in the presence of 5HT: a secondary contraction is observed
